From the domain aggregation screens of Martell et al. (2025)

Test: soluble fraction after stress (log2 fold change); higher = more stays soluble; pooled small domains, quantitative proteomics
Conditions: stress: pH 4
How it was run: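 How much of each domain stays soluble after acid stress, expressed as a fold change, is used to gauge aggregation propensity. Pooled custom libraries of small domains underwent pH 4 stress before high-throughput quantitative proteomics. A higher log2 value means more of the domain stayed soluble.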

Row | Sequence | soluble fraction (log2)
1 | HMELNILELKSKERKISLEDHLYIKSFNFDNETNEYFYRLAFNSSKDLKNFKATINNDKTISIINFEI | -2.14
2 | HMKTRQVTVRNGRIEIFDKRFSTERLVFTAANLPVLEREGEVFTAGIPDSRDFINLWARDGSFAGSVPRV | -1.51
3 | HMGSFGAMLKRNRKLAGLTQEQLAEKLDVSTVAVQNWESGKNQIRSEKLTKLSYLFNIPLETLIHEMLIS | 0.0247
4 | HMSTTILSFQNRVVIETLHNEGRSLRYIANYLGFSKATIFNELHRLNSEYRAELAQADFERKVSQR | -0.53
5 | HMERVNILEKATKDIPNVEVKAFEGLSVNFARENHAQVIVRGLRAVTDFEYELQMAQTNRVLAPDVDTVF | 0.317
6 | HMGDSEMPVSEVVRLAKLDQISSIEISGTKLTIITNNLETYTSRIEENSTIIEILQRAGVDIGGLEIYPHG | -0.983
7 | HMNLMQIHVARPPNQLGVFSQEEVAAGLQSGRFLPTDQAWRDGMSAWTPLSQWAEFSSVVAAV | -0.307
8 | HMIENPGQTFERIAGKITRTLRTGPLRIQQLDLLFSESGEQVMDVLRAMAENGEILIKDDTIQWNGHN | -0.387
9 | HMEPAPPPAAPPADPELQKRIDKLVEYIGKNGPEFEAVIRDKQHDNPDYAFVFGGEGHAYYRYLLWLLPRP | -0.287
10 | HMGIYFIIAAKNQENNIEEFIRTTLFRIVYGKEESINNITLVDLKSKDNTKNIMEEIARENENVKV | -0.696
11 | HMEYKYNPADYPYPLNEDIEKVYSAYREKSIGKLEAAVQNLYYTLKQARRDNILSDVKVNEMQQYFLALRN | 0.0584
12 | HMLETADDAKRFLGAIISEKKAENLLRVYPDIIERIVAGKPVDLSLVKGIKQKTFDKLRQKVISHYSMY | -0.0382
13 | HMYYNDEELDGYRGTPSDAYSDNAVEEFREVLYTLREDEVSGWVRSLQLRGIFLPDAIKDETFLI | -1.84
14 | HMDGLDFIINENGKIANINEEGELLAKGENIMLGYYKDSISTNNTINNGWLHTGDIAKIDNDGFIYL | -0.123
15 | HMLKLYILTDGKNYVMDDPIHPGRVMYSTSPVNAKKFTFKQARALLNNKSKKLSWIRSFNMVDDSSGEKI | 0.417
16 | HMSTPAKVTPTNPIVKQLFNAAETQIKNKDIQNAIASYEKADTLTTDEKVKQYIHYQLSTLKDDN | 0.0384
17 | HMDIPDIGHNVRIEVDGHNGKTTHEGIILHPAAPNHITIKLANGYNASYKLEEIINIEILGELGDDSKI | -0.863
18 | HMKTGTVQDFIAKYGMSSKSPSSWFNSLTQIQKAEAKALKAQSGLTWNEWYEKNIYNGDGSNL | -0.119
19 | HMERGEFQKLGRATLEQTLARAGKTLAEVSLKAMLETFAFAAEEDLYEALGRGRVSAAKVGETLFPALKGR | -0.942
20 | HMTKPAEVRIDELMNAAQTLFLAKGVEATTISEIIASVGVAKGTFYHYFESKQHIVEALKKRYID | -1.03
21 | HMQSANQLIKLSRKRKGLTQQELADQAGVSLRTVQRIEKGTEEISGFSLKQISQILEIPLEQLIM | -0.652
22 | HMAEAETVKFVGNSLLLVSGAAKGERLSVYTVGGQHVLSADATKPVDVAALHSGVYVVRTTNGVITKIVK | 0.0831
23 | HMHVVVIDKQGALSYQGKAITLLDLKNIVIDVPKETPFLIKADKDIHLQSFVEVLDLIKTAGFKKVSLQ | -0.459
24 | HMSIITLFQEINAAVAEATGGRVPESVVQNFILGKDVVIPEDVKEIIISKLKAFATDIEGMLEESGFD | -2.59
25 | HMTVSADQTAADAVIKLINAIGTVSENSGSAISAARSGYDALTDTQKKLVTNYNKLTQAEQVFSSLPS | -0.315
26 | HMGTKDVNAAPSAVGRTYDEAIEILNGYKAGYLEEYSDTVPKGTVISQSVQDGQVVIVVSLGPKPS | -0.18
27 | HMHDWDITTAAKPEKIFELFSDIPVLETGLKHGTVTLLIDHEPYEVTTFRVDGNYTDGRHPDSVAFT | -0.366
28 | HMPRFDINFKVGEVVTIKGGSFDGQQGEISEIDHEHGKIKVMLEVLGRLTPVEVEHTEIEKI | -0.623
29 | HMQISDTASIQEIAKEIIKSNPKAVEDYKKGKENALQFLVGQLMTKTKGTVHPGAARTILGDILK | -0.205
30 | HMKRYLFEEVLAFLKHNDGKSFNYKQLGAAMEIDNESDRFALLETLEELKHQGFVIETDIGKYAAKE | -0.322
